Experimental data as given in the supplement of paper PMC9170038.

Test system: K4 kissing-loop RNA reporter
Experiment: apparent KD of K4 kissing-loop reporter; higher = weaker reporter binding
Conditions: Eterna round: R107
Procedure: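 RNA-MaP round R107: designed RNA switches with theophylline, tryptophan, arginine or FMN aptamers are transcribed on-chip within common flanks. They are titrated with a labelled K4 kissing-loop RNA reporter in RNA-MaP buffer (100 mM Tris pH 7.5, 80 mM KCl, 4 mM MgCl2), without ligand or with the indicated ligand. Median apparent KD per design.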

[1] = input ligand: theophylline 20 uM
[2] = input ligand: tryptophan 2.4 mM
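Further: bound reporter read as fluorescence of individual clusters on recovered sequencing chips by microscopy, with normalized cluster intensities fitted with a binding model.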

Sequence	apparent KD of K4 kissing-loop reporter (input ligand: FMN 200 uM) [nM]	apparent KD of K4 kissing-loop reporter (input ligand: arginine 13.2 mM) [nM]	apparent KD of K4 kissing-loop reporter (input ligand: none) [nM]	apparent KD of K4 kissing-loop reporter [1] [nM]	apparent KD of K4 kissing-loop reporter [2] [nM]
CGUUUAUAGCAGGAUACCAGUACCCAUAAAGUACGUUAAUAGUAGAGUGAUGUUCUGAAGUACCCUUGGCAGCUUCCGGUAAGUG [#25 K4 Theophylline B Exclusion]	163	342	239	298	134
UGACGUUUGGGAAGGAGCGGAAUGUAAUACGGAGCGCGUGGAGAUGCAGUGAUGUUGCAGAUCCAGGUAGGUCGCCCAAGGGACG [Zati]	95.3	83.5	80.9	79.3	79.6
AGGCACGAGCAAGGAUAUCGAGUAGAGUGAUGUUCUGCCUGGGUUGGCGCGUAAGGGCCUUCCCAGCGAGAAGGUGCUCGUGCCU [#2 Same State - FMN A Attempt #12 (HarryS)]	253	681	939	677	660
GGGAGUGAUGUUCCCACGUUGUCGGUCCUCCGAGGACCGGUACGGCCGCCACUCGCGACCCAGUGAUGUUGGGACUCACCGUACC [Exclusion Tryptophan A Gf 12]	509	377	558	557	218
GCCUAGCAGGGAAGGAGCGCCAUAUAAUUAAAAGUUAAUUAAUGAGUGAUGUUCAAAUAAUGGCAGGUAGGUCGCCCUGCUAGGC [KL-SSArg B9]	378	289	329	316	323
CCCGGGUCGUCAGGAUAUGAGUGCAGUGAUGUUGCACGGGUCUUUGCAGGCCCUGGUGAGGCGUACUCAGAAGGGACGCCAGGUC [Atazazaed]	250	124	145	130	133
AAAGCAGUAUACUGCAAGACCUAUACUGAUACCAGAGUCAAUUGACUCCCUUGGCAGCGGAUCGAGUGAUGUUCGUAAGGUCAAA [AK4.1 SS Theophylline A]	498	555	528	734	617
UGUAUAUGAUGUGAUACCAGUGAAGAGCCAGUGAUGUUGGUAGAACUGGUAUAUAAAUAACACCCUUGGCAGCACAAUCACGUAC [whbob_Ex_Theo_B_sa98]	192	188	202	265	196
UGUUUUUACUGAAGGAGCGGCAAUUGAUACGUAGAUAUAGUGAUGUUAUAUAAGAUAGAGAGCCAGGUAGGUCGCAGAGUUUUUC [ExArgB.Z]	167	167	161	179	154
UAAUAAAUUCCAGCGAUAUCGCUCUUCGAAGGAGCGGGCGAAGGUCCAGGUAGGUCGCGGAGAGUGAUGUUCUUUGCGGCGCUGG [whbob_Ex_Arginine_A_2t135]	216	225	239	226	273
GGGUGGUAGGCGGCCGCCACUCUGAGCACCCACUGAGUGAUGUUCGUGGCGUAAGCCUGUUCAUAGAGGACCGGGUUUGUUGUUC [Exclusion Tryptophan B GF 16]	507	252	514	470	376
AGGAAGUGAGAAGGAUAUUACACUCGGAAGCGCUAGUGAUGUUAGCAUAGAAACAAGGGAACAUGGUAAGAAGGUCUUACAAUGA [theeternabot_sameState_KL_FMN_B_2]	76.6	71.6	38.9	69.5	40.1
UAUACUAGACAAGAGAGAAUUCUCUCAAGAGAGGAUAUCCGAAUUCGGAGAAGGCUCUCUCAGUGAUGUUGGGAAUAGUCUAGAA [AK6 SS FMN A]	150	151	188	229	177
GUGAAUGGCUGAGCAGCCGUGGUACGAGAUACCAGUGAUUUCGAUCACCCUUGGCAGCUCGGCGUGAGUGAUGUUCACGCUACAC [Theo A SS t12a]	273	278	300	330	270
UGACUGGAUGGAAGGAGCGCUAAACUCCUAGUGAUGUUAGGGACACGAGACAAAGUCUCGAGGCAGGUAGGUCGCCAUCUAGUCU [FiskerMod 7 - Jieux - Same State - Arginine B]	225	198	197	250	212
UGCUUAGUGAUGUUUGAUUUGGUGCAUGCAGAGGAUAUAGGGUGCUUUAGAAGGCUGAGGAGUGCGCCGAGUGAUGUUCGGCGCU [Exclusion FMN A GF11]	192	164	206	182	170
AAUUGAGUGACGGCCGCCACUAGAGUGAUUUUUUUGUUUGAGUGAUGUUUUGAUGUUUGAUGUUGUAGGACCGGGUUGAGUGAUG [vvrvmullin]	377	348	386	428	291
CUGAGCCUGACGCAAGUCAGGCUCUGCGAGCGAGGACCGGUACGGCCGCCACUCGGUGCAGUGAUGUUGCAUGGCCGCAAGGCCG [#2 Exclusion - Tryptophan A Attempt #21 (HarryS)]	254	215	274	218	306
UAGCGUCUGCGAGGAUAUCGGAUUAGAGUGAUGUUCUAAAGACGCCCAGUGAUGUUGGAUGCGAUACGAGAAGGCGCUGGGCGCG [Same State FMN B GF7]	182	358	399	332	297
GCCUUAUAUCCAGCUACAGCUCUUUUUGGUCGAGGACCGGUACGGCCGCCACUCGAAUGAUAGUGAUGUUAUCGUUUUGUACUAA [JR_Nu_ExcTryptoA_Sub024]	97.9	112	108	101	54.7
UAUUUAUUAACUGAUACCAGACUUAAUGAAUUGUAAAUUACUAGUGAUGUUAGUGAAUCUGUCCCUUGGCAGCAGUAUUUAUUAA [JR_Nu_ExcTheophyB_Sub028]	111	169	128	170	85.1
